These results are taken from patent US7144988B2, “Method of structure-based drug design to create or improve modulators of IL-1 activity which bind to the interleukin-1 type 1 receptor” (Array Biopharma, Inc., priority 2002, dated 2006).

For this experiment, the target named is T1, IL1R2D (modified IL-1 type 1 receptor, amino acids 18 to 222) (Homo sapiens, UniProt P14778).
T1 construct: made in house; host or cells: Hi5 insect cells, recombinant baculovirus (made in Sf9)
T1 sequence (P14778 18-222): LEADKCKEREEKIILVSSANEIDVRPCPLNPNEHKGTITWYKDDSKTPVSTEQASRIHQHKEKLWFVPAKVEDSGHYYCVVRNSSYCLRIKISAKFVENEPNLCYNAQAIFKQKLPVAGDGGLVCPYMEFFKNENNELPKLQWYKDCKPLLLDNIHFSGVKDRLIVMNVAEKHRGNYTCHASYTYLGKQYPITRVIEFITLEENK
Kind of experiment: Binding affinity of ligands to modified IL-1 type 1 receptor IL1R2D.

The substance “IL-1ra: IL-1 receptor antagonist protein; competes with IL-1α and β for receptor binding” yielded a Kd of at least 1000 nM.
